Assay results taken from US20180305450A1 (AstraZeneca / MedImmune, published 2018).
Numbering of substitutions follows the chain as printed.

B1: PaB670010 scFv (scFv, V domains shown)
VH: EVQLLESGGGLVQPGGSLRLSCAASGFTFSSYAMNWVRQAPGKGLEWVSTISYSGSLIHYADSVKGRFTISRDNSKNTLYLQMNSLRAEDTAVYYCARINNDPMDVWGQGTLVTVSS
VL: SIELTQPPSVSVSPGQTASITCSGDNLGKKYVQWYQQKPGQSPVLVIYDDSNRPSGIPERFSGSNSGNTATLTISGTQAMDEADYYCQTWDGNPTTGETNVFGGGTKLTVL
notes: purified scFv; also called ZZ1DRB-B08
B2: PaB670064 scFv (scFv, V domains shown)
VH: B1 VH with H59S
VL: B1 VL with Q88H, D91H, G92H, T95H, V101H
notes: purified scFv; also called ZZ1KX6-B09
B3: PaB670081 scFv (scFv, V domains shown)
VH: B1 VH with Y53H, S56H, L57H, H59S, Y60H, A61H, V64H, K65H
VL: B1 VL
notes: purified scFv; also called ZZ1OZA-C01
B4: PaB670034 scFv (scFv, V domains shown)
VH: B1 VH with H59S
VL: B1 VL with T96H
notes: purified scFv; also called ZZ1IGF-B11
B5: PaB670075 scFv (scFv, V domains shown)
VH: B1 VH with H59S
VL: B1 VL with T89H, P94H, T95H, T96H, V101H
notes: purified scFv; also called ZZ1NHH-A05
B6: PaB670076 scFv (scFv, V domains shown)
VH: B1 VH with H59S
VL: B1 VL with Q88H, G92H, N93H, P94H, T99H
notes: purified scFv; also called ZZ1NHH-F09
B7: PaB670083 scFv (scFv, V domains shown)
VH: B1 VH with S52H, Y53H, S56H, I58H, H59S, Y60H, S63H
VL: B1 VL
notes: purified scFv; also called ZZ1OZB-H05
B8: PaB670085 scFv (scFv, V domains shown)
VH: B1 VH with S54H, L57H, H59S, A61H, D62H, V64H
VL: B1 VL
notes: purified scFv; also called ZZ1ODR-A02
B9: PaB670070 scFv (scFv, V domains shown)
VH: B1 VH with H59S
VL: B1 VL with G92H, P94H, T95H, E98H
notes: purified scFv; also called ZZ1KXE-D06
B10: PaB670066 scFv (scFv, V domains shown)
VH: B1 VH with H59S
VL: B1 VL with Q88H, T89H, D91H, P94H, T95H, V101H
notes: purified scFv; also called ZZ1KX6-D05
B11: PaB670077 scFv (scFv, V domains shown)
VH: B1 VH with H59S
VL: B1 VL with Q88H, T89H, D91H, N93H, P94H, V101H
notes: purified scFv; also called ZZ1OZJ-C11
B12: PaB670045 scFv (scFv, V domains shown)
VH: B1 VH with H59S, N100H, N101H
VL: B1 VL
notes: purified scFv; also called ZZ1KX3-F01
B13: PaB670020 scFv (scFv, V domains shown)
VH: B1 VH with H59S, N101H
VL: B1 VL
notes: purified scFv; also called ZZ1IGD-D05

What was measured:
[1] = target: T1, recombinant biotinylated human PAR2 extracellular domain (residues 1-75), N-terminal AviTag, C-terminal Flag … (human, UniProt P55085 26-75, biotin on the AviTag (enzymatic biotinylation)); experiment: HTRF competition with Par0067 IgG, scFv
T1 construct: also called Bio-human-PAR2 ECD; human PAR2 ECD; not shown: N-terminal AviTag (Avidity LLC); C-terminal Flag and poly Histidine tags
Description: (§1) 5 μl/well of the appropriate pH 4.44 nM Par0067 IgG solution was added to all wells of the relevant assay plate (pH 7.4 and pH 6.0).
(§2) Test scFv Preparation/Addition: [0172] a) For parallel single point HTS of crude un-purified bacterial lysate scFv samples at both pH 7.4 and pH 6.0 samples were first pre-diluted to 40% of their neat concentration using either pH 7.4 or pH 6.0 assay buffer as appropriate. Subsequently 5 μl of 40% pre-diluted sample was then transferred into the appropriate assay (pH 7.4 or pH 6.0) in order to give a final assay sample concentration of 10.0% (in the 20 μl final assay volume). The parent Par0067 scFv was included in all HTS experiments as a control as were specific pH dependent antibodies as those became available (for benchmarking). […] Duplicate 11 point 1:3 serial dilutions then were prepared on 384 well polypropylene Greiner plates in each of the two assay buffers (pH 7.4 & 6.0). 5 μl per well of each serial dilution was transferred from the relevant pH scFv dilution plate to the corresponding assay plate (pH 7.4 and pH 6.0). 5 μl of the appropriate pH assay buffer was added to the total and non-specific wells. The parent Par0067 purified scFv was included in all multipoint dose response IC₅₀ experiments as a control as were specific pH dependent purified scFv as those became available (for benchmarking).
(§3) For multipoint dose response curves % Specific Binding values were plotted versus test purified antibody concentration (scFv or IgG). IC₅₀ values were determined via a sigmoidal dose response inhibition variable slope curve fit (4 parameter logistic equation) using Graphpad Prism Software.

[2] = target: T1, recombinant biotinylated human PAR2 …; experiment: HTRF competition with Par0067 IgG, pH 6.0, scFv
Description: as §1, §2, §3

[3] = target: T1, recombinant biotinylated human PAR2 …; experiment: HTRF competition with Par0067 IgG, pH 7.4, scFv
Description: as §1, §2, §3

T1 sequence (P55085 26-75): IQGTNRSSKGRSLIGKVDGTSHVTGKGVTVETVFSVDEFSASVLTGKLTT

Row | Binder | Fold IC50 (pH 6.0 v pH 7.4) [1] | Fold IC50 pH 7.4 (Variant v Par0067) [1] | IC50 [2] | IC50 [3]
1 | B1 | 2.7 fold | 4.7 fold | 41.8 nM | 15.4 nM
2 | B2 | 4.3 fold | 20.3 fold | 290 nM | 67.1 nM
3 | B3 | 5.1 fold | 15.6 fold | 260 nM | 51.4 nM
4 | B4 | 2.5 fold | 1.7 fold | 14.2 nM | 5.6 nM
5 | B5 | 5.9 fold | 30.8 fold | 603 nM | 102 nM
6 | B6 | 6.3 fold | 14 fold | 292 nM | 46.2 nM
7 | B7 | 3.4 fold | 13.7 fold | 152 nM | 45.2 nM
8 | B8 | 3.2 fold | 14.6 fold | 155 nM | 48.1 nM
9 | B9 | 4.5 fold | 18.3 fold | 270 nM | 60.4 nM
10 | B10 | 9.3 fold | 15.8 fold | 487 nM | 52.2 nM
11 | B11 | 11.2 fold | 16.8 fold | 620 nM | 55.4 nM
12 | B12 | 7.4 fold | 3 fold | 72.5 nM | 9.8 nM
13 | B13 | 3.3 fold | 1.7 fold | 18.5 nM | 5.6 nM
